{"source": "patent US10124019B2", "about": "“Compositions and their use for removing cholesterol” (Cornell University, priority 2009, dated 2018)", "molecules": {"B1": {"name": "rhASM: Recombinant human acid SMase prepared from transfected CHO cells (protein, UniProt P17405 47-631, looked up)", "Sphingomyelin …": "LALSDSRVLWAPAEAHPLSPQGHPARLHRIVPRLRDVFGWGNLTCPICKGLFTAINLGLKKEPNVARVGSVAIKLCNLLKIAPPAVCQSIVHLFEDDMVEVWRRSVLSPSEACGLLLGSTCGHWDIFSSWNISLPTVPKPPPKPPSPPAPGAPVSRILFLTDLHWDHDYLEGTDPDCADPLCCRRGSGLPPASRPGAGYWGEYSKCDLPLRTLESLLSGLGPAGPFDMVYWTGDIPAHDVWHQTRQDQLRALTTVTALVRKFLGPVPVYPAVGNHESTPVNSFPPPFIEGNHSSRWLYEAMAKAWEPWLPAEALRTLRIGGFYALSPYPGLRLISLNMNFCSRENFWLLINSTDPAGQLQWLVGELQAAEDRGDKVHIIGHIPPGHCLKSWSWNYYRIVARYENTLAAQFFGHTHVDEFEVFYDEETLSRPLAVAFLAPSATTYIGLNPGYRVYQIDGNYSGSSHVVLDHETYILNLTQANIPGAIPHWQLLYRARETYGLPNTLPTAWHNLVYRMRGDMQLFQTFWFLYHKGHPPSEPCGTPCRLATLCAQLSARADSPALCRHLMPDGSLPEAQSLWPRPLFC"}, "B2": {"name": "rhASM-Alexa555: recombinant enzyme conjugated with Alexa555 (conjugate, UniProt P17405 47-631, looked up)", "Sphingomyelin …": "B1 Sphingomyelin …", "modifications": "Alexa555 label"}}, "key": {"[1]": {"system": "U18666A-treated GM05659 cells", "assay": "LSO filipin assay in U18666A-treated apparently normal fibroblasts", "conditions": "GM05659 treated with various concentrations of U18666A (FIG. 14A)", "experimental": "Cells were plated in 384-well assay plates at a density to produce ≈80-90% confluency by experiment completion and treated with U18666A at indicated concentrations for 24 hour before addition of various concentrations of either MβCD or HPβCD for another 24 hours, during which indicated U18666A levels were maintained. At the end of the experiment, cells were fixed with 1% PFA and stained with 50 μg/mL filipin. Images were acquired using an ImageXpressMICRO imaging system with a 10× objective. […] (A) Cholesterol accumulation, as measured by the LSO filipin assay, at different concentrations of U18666A. MβCD (B) and HPβCD (C) LSO filipin dose-response curves at three different U18666A concentrations. […] Data represent averages±SEM of two independent experiments (n=12 for control and n=6 for treated, where n is total number of wells per condition used for quantification)."}, "[2]": {"system": "NPC1-deficient, NPC2-deficient, apparently normal, and U18666A-treated normal cells", "assay": "GC/MS measurement of total free cholesterol", "assay_type": "cell-based, human", "conditions": "normal cells treated with 1 μM U18666A", "method": "FIGS. […]. Charts showing GC/MS measurement of cyclodextrin effects on total free cholesterol levels in NPC1-deficient, NPC2-deficient, apparently normal, and U18666A-treated normal cells. […] Cells were treated with 0.9 mM MβCD or HPβCD for 1 day in growth medium. At the end of the experiment, cellular lipids were extracted and analyzed by GC/MS. Data represent averages±SEM of two independent experiments normalized to control average value for each experiment."}, "NPC (GM03123) Fbs [3]": {"system": "NPC (GM03123) Fbs", "assay": "rhASM enzyme replacement, LSO filipin quantification in NPC fibroblasts", "assay_type": "cell-based, human", "method": "FIGS. 27 A-C. Graph showing the effect of SMase restoration on human NPC1 cells (exogenous acid SMase decreases cholesterol accumulation in LSOs in human NPC fibroblasts). Parallel sets of human WT (GM05659) and NPC (GM03123) Fbs were incubated in medium alone or, in the case of the NPC fibroblasts, medium containing 3 μg/mL recombinant human acid SMase (rhASM). Two days later, the cells were washed thoroughly with PBS and either lysed and assayed for acid SMase activity (A), or fixed and stained with filipin for imaging and quantification (B). […] Scale bar, 15 μm. The quantified data in the bar graph represent LSO ratios normalized to the WT Fb values (average of 60-66 images from three independent experiments±SEM). C) Another human NPC Fbs (GM18453) was incubated with 3 μg/mL rhASM for 24 h, unlike 48 h in NPC1 (GM03123). Quantified data shown in bar chart are the normalized LSO ratios (normalized to untreated NPC Fbs) in the presence and absence of recombinant enzyme. Data represents an average from two independent experiments and 30-36 images±SEM, p<0.0001.\n(§1) FIG. 29 A,B. Decreased LSO cholesterol accumulation and increased acid SMase activity are achieved in NPC1 human fibroblasts by increasing amounts of rhASM. WT (GM5659) and NPC (GM03123) Fbs were incubated with 0, 0.2 and 1.8 μg/mL rhASM for 24 hours. To remove surface-bound label, the cells were further incubated for 15 minutes with growth medium without the enzyme. The cells were washed thoroughly with PBS and either lysed and assayed for acid SMase activity (A) or fixed and stained with filipin for imaging and quantification (B). Each data point in plot (A) is representative of three wells in an experiment, p<0.05. Plot (B) represents LSO ratios normalized to the untreated NPC Fb […] values (average of 16-20 images from two independent experiments±SEM), p<0.005.\n(§2) Normal (GM05659) and NPC1 human fibroblasts (GM03123) were incubated in a medium containing 3 μg/mL recombinant human acid SMase (rhASM). Two days later, the cells were washed thoroughly with PBS, and either lysed and assayed for acid SMase activity or fixed and stained with filipin for imaging and quantification. NPC1 human fibroblasts GM18453 were treated with 3 μg/mL rhASM for 24 h before fixing, staining with filipin, imaging and quantifying.\nCells were plated onto poly-d-lysine-coated 35-mm coverslip dishes in a medium containing 10% FBS. After 1-2 days of growth, the cell monolayers were washed three times with PBS and then fixed with 3% paraformaldehyde in PBS for 20 minutes at room temperature, followed by three more washes with PBS. To detect free cholesterol, filipin was added to the fixed cells (50 μg/mL in PBS) for 45 minutes at room temperature. Finally, the cells were washed three times with PBS, and images were acquired immediately after labeling.\n(§3) Images were analyzed using Metamorph (version 7.0 r4) image analysis software from Molecular Devices (MDS Analytical Technologies). All images were corrected for background before analysis. The average filipin and LSO ratio was calculated as described previously (Pipalia 2006). The LSO ratio was calculated based on low-thresholded region and high-thresholded intensities in the filipin image as described previously (Pipalia 2006)."}, "WT Fbs (GM05659) [4]": {"system": "WT Fbs (GM05659)", "assay": "rhASM, LSO filipin quantification in wild-type fibroblasts", "assay_type": "cell-based, human", "conditions": "all doses of rhASM tested (0, 0.2, 1.8 μg/mL)", "method": "as §1\nCells were plated onto poly-d-lysine-coated 35-mm coverslip dishes in a medium containing 10% FBS. […]\nas §3, with “All images were corrected for background before analysis.” left out"}, "WT Fbs (GM05659) [5]": {"system": "WT Fbs (GM05659)", "assay": "Acid SMase activity assay after rhASM, wild-type fibroblasts", "assay_type": "cell-based, human", "conditions": "24 hours", "method": "as §1\nCell extracts were prepared by scraping cells into ice-cold 250 mM sucrose, followed by sonication on ice twice for 10 seconds each using a Branson Sonifier 450. To prepare the substrate, solvent from 0.1 μCi [cholinemethyl-^14C] […] The assay solution, which was added to 1.5-mL microcentrifuge tubes on ice, consisted of 50 μL assay buffer, 20 μL substrate and 20 μL of cell extract. After incubation for 60 minutes at 37° C., the reaction was terminated by adding 125 μL of chloroform:methanol (2:1, v/v). The assay tubes were vortexed for 1 minute and then centrifuged 5000×g for 5 minutes at 4° C. […]"}, "NPC (GM03123) Fbs [6]": {"system": "NPC (GM03123) Fbs", "assay": "Acid SMase activity assay after rhASM, NPC fibroblasts", "assay_type": "cell-based, human", "method": "as §1\nCell extracts were prepared by scraping cells into ice-cold 250 mM sucrose, followed by sonication on ice twice for 10 seconds each using a Branson Sonifier 450. […]\nas §2"}, "[7]": {"system": "WT (GM05659) and NPC (GM03123) human fibroblasts", "assay": "Sub-cellular localization and uptake of Alexa555-conjugated rhASM", "assay_type": "cell-based", "conditions": "data not shown", "method": "WT (GM5659) and NPC (GM03123) Fbs were incubated with or without 3 μg/mL Alexa555-conjugated rhASM for 24 hours. To remove surface-bound label, the cells were further incubated for 15 min with a growth medium without the enzyme. Finally, the cells were washed with PBS, fixed with 1.5% PFA, and stained with filipin for imaging and quantification. […] Color overlays for filipin (green) and rhASM-Alexa555 (red) are shown in panels (C, F and I). The images in the inset are the zoomed color overlays of the region marked in (C, F and I). Scale bar=10 μm.\nFor identifying the localization of rhASM in the cells, recombinant enzyme was conjugated with Alexa555 (Invitrogen) according to the manufacturer's protocol. Normal (GM05659) and NPC1 human fibroblasts (GM03123) were incubated in a medium containing 3 μg/mL Alexa555-rhASM for 24 h prior to fixing and staining with filipin. Images were acquired using standard UV and TRITC filters for filipin and Alexa555-labeled rhASM, and quantified.\nTo ascertain whether exogenously added rhASM was localized and processed in late endosomal organelles, WT (GM05659) and NPC (GM03123) human fibroblasts were incubated for 24 hours in the absence or presence of 3 μg/mL of Alexa555-labeled rhASM. […] The cells were then washed, fixed and stained with filipin for imaging and quantification. […]"}}}
{"molecule": "CCN(CC)CCO[C@H]1CC[C@@]2(C)C(=CC[C@@H]3[C@@H]2CC[C@]2(C)C(=O)CC[C@@H]32)C1", "note": "[U18666A, 3-β-[(2-diethyl-amino)ethoxy]androst-5-en-17-one]", "values": [{"measurement": "extent of cholesterol accumulation in LSOs", "setting": "[1]", "value": "dose dependent"}, {"measurement": "free cholesterol per μg cell protein", "setting": "[2]", "value": "0.074 ± 0.006", "unit": "pmol/µg"}]}
{"molecule": "B1", "values": [{"measurement": "decrease in LSO filipin intensity", "setting": "NPC (GM03123) Fbs [3]; 0.2 μg/mL rhASM, 24 hours", "value": "~20", "unit": "%"}, {"measurement": "reduction of LSO filipin intensity", "setting": "NPC (GM03123) Fbs [3]; 1.8 μg/mL rhASM, 24 hours", "value": "~60", "unit": "%"}, {"measurement": "decrease in LSO filipin intensity", "setting": "NPC (GM03123) Fbs [3]; 3 μg/mL rhASM (FIG. 27)", "value": "65-70%"}, {"measurement": "LSO filipin fluorescence", "setting": "NPC (GM03123) Fbs [3]; 3 μg/mL rhASM, two days (FIG. 27B)", "value": "dramatically decreased LSO filipin fluorescence"}, {"measurement": "residual cholesterol accumulation", "setting": "NPC (GM03123) Fbs [3]; excess acid SMase, NPC1 cells", "value": "25-30%"}, {"measurement": "LSO filipin staining", "setting": "WT Fbs (GM05659) [4]", "value": "remained low and constant"}, {"measurement": "acid SMase activity", "setting": "WT Fbs (GM05659) [5]; 0.2 μg/mL rhASM", "value": "increased slightly"}, {"measurement": "acid SMase activity", "setting": "WT Fbs (GM05659) [5]; 1.8 μg/mL rhASM", "value": "did not increase further"}, {"measurement": "acid SMase activity", "setting": "NPC (GM03123) Fbs [6]; 0.2 μg/mL rhASM, 24 hours", "value": "increased acid SMase activity significantly"}, {"measurement": "defect in acid SMase activity", "setting": "NPC (GM03123) Fbs [6]; 3 μg/mL rhASM, two days (FIG. 27A)", "value": "corrected"}]}
{"molecule": "B2", "values": [{"measurement": "effect of Alexa555 conjugation on enzyme activity", "setting": "[7]", "value": "did not affect its activity"}]}
